# From patent US20100196265A1 (University of California, published 2010)
# B1: ALM (A5-ML3.9) bispecific scFv (bispecific antibody)
# scFv: AMAQVQLVQSGGGLVKPGGSLRLSCAASGFSFNTYDMNWVRQAPGKGLEWVSSISSSSSYIYYADSVKGRFTISRDNAKNSLYLQMNSLRAEDTAVYYCARDGVATTPFDYWGQGTLVTVSSGGGGSGGGGSGGGGSQSVLTQPPSVSGAPGQRVTISCTGSSSNIGAGYDVHWYQQLPGTAPKLLIYGNSNRPSGVPDRFSGSKSGTSASLAITGLQAEDEADYYCQSYDSSLSALFGGGTKLTVLGNSGAGTSGSGASGEGSGSKLQVQLVQSGAEVKKPGESLKISCKGSGYSFTSYWIAWVRQMPGKGLEYMGLIYPGDSDTKYSPSFQGQVTISVDKSVSTAYLQWSSLKPSDSAVYFCARHDVGYCSSSNCAKWPEYFQHWGQGTLVTVSSGGGGSGGGGSGGGGSQSVLTQPPSVSAAPGQKVTISCSGSSSNIGNNYVSWYQQLPGTAPKLLIYDHTNRPAGVPDRFSGSKSGTSASLAISGFRSEDEADYYCASWDYTLSGWVFGGGTKLTVLGLEHHHHHH
# notes: Expressed in E. coli TG1 from pUC/ALM and purified by IMAC and size exclusion; also called A5/Linker/ML3.9 bs-scFv; ALM proteins
# How the values were obtained:
# [1] = target: T1, HER2/neu extracellular domain (UniProt P04626 23-652, limits assumed); assay: surface plasmon resonance (BIAcore), HER2/neu extracellular domain on the chip, ALM injected; concentrations not given
# T1 construct: extracellular domain; also called ErbB2
# [2] = target: T2, HER3 extracellular domain (UniProt P21860 20-643, limits assumed); assay: surface plasmon resonance (BIAcore), HER3 extracellular domain on the chip, ALM injected; concentrations not given
# T2 construct: extracellular domain; also called ErbB3
# T2 sequence (P21860 20-643 limits assumed): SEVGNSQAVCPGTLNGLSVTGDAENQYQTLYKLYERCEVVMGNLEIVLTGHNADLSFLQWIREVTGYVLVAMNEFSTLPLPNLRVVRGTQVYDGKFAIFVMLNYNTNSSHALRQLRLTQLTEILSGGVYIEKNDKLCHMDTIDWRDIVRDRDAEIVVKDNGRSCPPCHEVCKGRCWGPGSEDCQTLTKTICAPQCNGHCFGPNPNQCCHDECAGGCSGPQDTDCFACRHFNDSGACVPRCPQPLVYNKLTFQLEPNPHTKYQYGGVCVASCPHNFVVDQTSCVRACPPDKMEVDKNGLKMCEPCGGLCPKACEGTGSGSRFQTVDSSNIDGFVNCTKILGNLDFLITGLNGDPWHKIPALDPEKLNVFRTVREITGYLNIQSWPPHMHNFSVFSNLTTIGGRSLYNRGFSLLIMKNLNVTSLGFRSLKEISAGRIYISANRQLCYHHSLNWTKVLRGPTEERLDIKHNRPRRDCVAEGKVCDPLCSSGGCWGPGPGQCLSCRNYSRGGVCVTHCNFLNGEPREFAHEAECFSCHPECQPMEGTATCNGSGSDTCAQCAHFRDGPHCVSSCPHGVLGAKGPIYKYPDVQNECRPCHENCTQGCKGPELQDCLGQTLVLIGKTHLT
binder,measurement,setting,value
B1,binding result,[1],binds
same,binding result,[2],binds
